Measured values as given in paper PMC11193732 (Scientific Reports, 2024).

Columns and labels:
[1] = target: T1, 6xHis-tagged recombinant SARS-CoV-2 (2019-nCoV) spike protein S1 + S2 extracellular domain (Severe acute respiratory syndrome …, UniProt P0DTC2); assay: ELISA; […] (40 ng/mL, 50 μL) […]; settings: one partner purified
T1 construct: SARS-CoV-2 (2019-nCoV) spike protein, S1 + S2 extracellular domain; lacks the cytoplasmic region; retains the S1/S2 cleavage regions; No catalogue number or limits are printed; also called recombinant S1 + S2; recombinant spike protein

[2] = target: T2, 6xHis-tagged recombinant SARS-CoV-2 (2019-nCoV) spike S2 extracellular domain (SARS-CoV-2, Wuhan (2019-nCoV), UniProt P0DTC2); assay: western blot; recombinant spike proteins separated by SDS-PAGE on nitrocellulose; 5G2 mAb 0.2 μg/mL, RT 1 h; anti-mouse IgG-F(ab')2-HRP; settings: both partners purified
T2 construct: SARS-CoV-2 (2019-nCoV) spike protein, S2 extracellular domain; lacks the cytoplasmic region; No catalogue number or limits are printed; also called recombinant S2; S2 subunit of the recombinant spike protein

[3] = target: S2 subunit of the SARS-CoV-2 WT spike protein in infected Vero cells (SARS-CoV-2, Wuhan (WT), UniProt P0DTC2); assay: western blot; settings: one partner purified
[4] = target: T3, SARS-CoV-2 spike 1099-1112 peptide (GTH peptide) (Severe acute respiratory syndrome …); assay: SPR; settings: both partners purified
T3 construct: SARS-CoV-2 spike protein, residues 1099-1112, between HR1 and HR2 of the S2 domain
T3 chain: GTHWFVTQRNFYEP

[5] = target: T4, spike protein (S1 + S2) of SARS-CoV-2 WT (Wuhan strain) (SARS-CoV-2, Wuhan (WT), UniProt P0DTC2); assay: ELISA; wells coated with 1 × 10^5 heat-inactivated virus in PBS; 5G2 mAb added; anti-mouse IgG-F(ab')2-HRP, A450; settings: one partner purified
T4 construct: uncleaved S1 + S2 spike protein of SARS-CoV-2 WT (Wuhan strain), as made by the virus; also called original Wuhan strain; the coronavirus

[6] = target: T2, 6xHis-tagged recombinant SARS-CoV-2 …; assay: western blot; settings: one partner purified
[7] = target: T1, 6xHis-tagged recombinant SARS-CoV-2 …; assay: western blot; settings: one partner purified
[8] = target: T4, spike protein (S1 + S2) of SARS-CoV-2 …; assay: western blot; settings: one partner purified
[9] = target: T5, recombinant S2 subunit of the spike protein without 6xHis (SARS-CoV-2, Wuhan (WT), UniProt P0DTC2); assay: western blot
T5 construct: also called r-S2; recombinant S2 without 6xHis

[10] = target: T2, 6xHis-tagged recombinant SARS-CoV-2 …; assay: western blot; recombinant spike proteins separated by SDS-PAGE on nitrocellulose; MBP-sc5G2-6xHis 0.8 μg/mL, RT 1 h; anti-MBP antibody and anti-mouse IgG-F(ab')2-HRP; settings: both partners purified
[11] = target: T1, 6xHis-tagged recombinant SARS-CoV-2 …; assay: as above; settings: both partners purified

B1: 5G2 monoclonal antibody (antibody, V domains shown)
VH: QIQLVQSGPELKKPGATVKISCKASGYTFTNYGMHWLKQTPGKVLKWMGLINTYTGEPKYADDFKGRFAFSLETSASTAYLQINNLRSEDTATYFCARKGLGLRPPMDSWGQGTSVTVSS
VL: QIVLSQSPAILSASPGEKVTMTCRASSSVNYMHWCQQKPGSSPKPLIHGTSNLASGVPGRFSGSGSGTSYSLTISRVEAEDAATYYCHQWNSYPLTFGAGTRLEL
notes: also called 5G2 mAb; mAb 5G2
binding result [1]: binds | binding result [2]: binds | binding result [3]: binds | Kd [4]: 0.11 nM | binding result [5]: binds

B2: recombinant 5G2 (cloned heavy and light chains fused to mouse IgG constant γ1 and κ chains) (antibody, V domains shown)
VH: QIQLVQSGPELKKPGATVKISCKASGYTFTNYGMHWLKQTPGKVLKWMGLINTYTGEPKYADDFKGRFAFSLETSASTAYLQINNLRSEDTATYFCARKGLGLRPPMDSWGQGTSVTVSS
VL: QIVLSQSPAILSASPGEKVTMTCRASSSVNYMHWCQQKPGSSPKPLIHGTSNLASGVPGRFSGSGSGTSYSLTISRVEAEDAATYYCHQWNSYPLTFGAGTRLEL
notes: as the heavy chain variable region of m1; mouse IgG constant γ1 chain; as the light chain variable region of m1; mouse immunoglobulin constant κ chain; Mouse IgG1 kappa; also called recombinant heavy and light chains of 5G2; 293FT + cDNA
binding result [6]: binds | binding result [7]: binds

B3: sc5G2-6xHis produced by E. coli (refolded) (scFv, V domains shown)
VH: QIQLVQSGPELKKPGATVKISCKASGYTFTNYGMHWLKQTPGKVLKWMGLINTYTGEPKYADDFKGRFAFSLETSASTAYLQINNLRSEDTATYFCARKGLGLRPPMDSWGQGTSVTVSS
VL: QIVLSQSPAILSASPGEKVTMTCRASSSVNYMHWCQQKPGSSPKPLIHGTSNLASGVPGRFSGSGSGTSYSLTISRVEAEDAATYYCHQWNSYPLTFGAGTRLEL
notes: as the heavy chain variable region of m1; as the light chain variable region of m1; also called MBP-free sc5G2
binding result [8]: binds | binding result [9]: binds

B4: MBP-sc5G2-6xHis produced by E. coli (refolded) (scFv, V domains shown)
VH: QIQLVQSGPELKKPGATVKISCKASGYTFTNYGMHWLKQTPGKVLKWMGLINTYTGEPKYADDFKGRFAFSLETSASTAYLQINNLRSEDTATYFCARKGLGLRPPMDSWGQGTSVTVSS
VL: QIVLSQSPAILSASPGEKVTMTCRASSSVNYMHWCQQKPGSSPKPLIHGTSNLASGVPGRFSGSGSGTSYSLTISRVEAEDAATYYCHQWNSYPLTFGAGTRLEL
notes: as the heavy chain variable region of m1; as the light chain variable region of m1; Same cDNA as m3, in pET22b; not shown: MBP, N-terminal, kept; 6xHis, C-terminal, kept
binding result [8]: binds | binding result [10]: binds | binding result [11]: binds

B5: MBP-sc5G2-6xHis produced by HEK293FT cells (scFv, V domains shown)
VH: QIQLVQSGPELKKPGATVKISCKASGYTFTNYGMHWLKQTPGKVLKWMGLINTYTGEPKYADDFKGRFAFSLETSASTAYLQINNLRSEDTATYFCARKGLGLRPPMDSWGQGTSVTVSS
VL: QIVLSQSPAILSASPGEKVTMTCRASSSVNYMHWCQQKPGSSPKPLIHGTSNLASGVPGRFSGSGSGTSYSLTISRVEAEDAATYYCHQWNSYPLTFGAGTRLEL
notes: as the heavy chain variable region of m1; as the light chain variable region of m1; The MBP cDNA came from the pMAL-p2 vector; not shown: MBP, N-terminal, kept; 6xHis, C-terminal, kept
binding result [8]: binds | binding result [10]: binds | binding result [11]: binds
